Molecular target: microtubules grown from porcine brain tubulin (porcine) (UniProt P02550)
Experiment: TIRF microscopy of fluorescent proteins on dynamic microtubules in vitro

Substance	fold intensity along MTs over NEDD1^CDK1/PLK1	MT binding at 10 nM, percent of γ-TuRC^StN/CDK1/PLK1	MT binding at 50 nM, percent of γ-TuRC^StN/CDK1/PLK1
augmin^CDK1/PLK1-GFP, Q96CS2-1;Q9NVX0-1;Q68CZ6-1;Q9H6D7-1;O94927-1;Q7Z4H7-1;Q99871-1;Q9BT25-1	20 fold	–	–
γ-TuRC^ΔWD/StN/CDK1/PLK1-GFP (γ-TuRC purified by Strep-NEDD1 ΔWD, GCP3-GFP) (from UniProt P23258;Q9BSJ2-1;Q96CW5-1;Q9UGJ1-2;Q96RT8-1;Q96RT7-1;Q08AG7;Q6P582;Q6NZ67;Q9Y5B8-1) (complex)	–	21%	13%

— paper PMC9129923
